For this assay, the target named is T1, OX40 receptor on mouse CD4+ T-cells (mouse, UniProt P47741 20-272).
T1 sequence (looked up): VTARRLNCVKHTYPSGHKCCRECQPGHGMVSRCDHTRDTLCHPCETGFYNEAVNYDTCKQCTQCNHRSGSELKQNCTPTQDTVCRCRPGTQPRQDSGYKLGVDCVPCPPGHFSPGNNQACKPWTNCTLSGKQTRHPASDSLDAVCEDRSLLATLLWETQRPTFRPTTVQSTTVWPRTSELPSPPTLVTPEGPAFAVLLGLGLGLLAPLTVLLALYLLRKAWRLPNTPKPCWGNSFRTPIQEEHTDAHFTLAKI
Nature of the assay: cell-based or functional assay.

B1: murine OX40L polypeptide expressed from mOX40L_miR122 mRNA (SEQ ID NO: 66) on the surface of B16F10 cells (ligand)
chain: MEGEGVQPLDENLENGSRPRFKWKKTLRLVVSGIKGAGMLLCFIYVCLQLSSSPAKDPPIQRLRGAVTRCEDGQLFISSYKNEYQTMEVQNNSVVIKCDGLYIIYLKGSFFQEVKIDLHFREDHNPISIPMLNDGRRIVFTVVASLAFKDKVYLTVNAPDTLCEHLQINDGELIVVQLTPGYCAPEGSYHSTVNQVPL
As to B1, the “mouse IL-2 production by CD4+ T-cells (IL-2 ELISA), fold over mock-treated or non-translated mRNA control (about 6 ng/ml)” value is approximately 2 fold.
